Laboratory results: patent publication US9422541

Biological target: T1, Recombinant C5a produced as an N-term His-tagged fusion (HT-C5a)
T1 chain: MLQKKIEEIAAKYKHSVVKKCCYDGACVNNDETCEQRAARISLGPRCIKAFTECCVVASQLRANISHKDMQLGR

B1: ScpA, bacterial C5a protease from Streptococcus pyogenes (protein)
chain: DANDLAPQAPAKTADTPATSKATIRDLNDPSQVKTLQEKAGKGAGTVVAVIDAGFDKNHEAWRLTDKTKARYQSKEDLEKAKKEHGITYGEWVNDKVAYYHDYSKDGKTAVDQEHGTHVSGILSGNAPSETKEPYRLEGAMPEAQLLLMRVEIVNGLADYARNYAQAIRDAVNLGAKVINMSFGNAALAYANLPDETKKAFDYAKSKGVSIVTSAGNDSSFGGKTRLPLADHPDYGVVGTPAAADSTLTVASYSPDKQLTETAMVKTDDQQDKEMPVLSTNRFEPNKAYDYAYANRGMKEDDFKDVKGKIALIERGDIDFKDKVANAKKAGAVGVLIYDNQDKGFPIELPNVDQMPAAFISRKDGLLLKDNPQKTITFNATPKVLPTASGTKLSRFSSWGLTADGNIKPDIAAPGQDILSSVANNKYAKLSGTSMSAPLVAGIMGLLQKQYETQYPDMTPSERLDLAKKVLMSSATALYDEDEKAYFSPRQQGAGAVDAKKASAATMYVTDKDNTSSKVHLNNVSDKFEVTVTVHNKSDKPQELYYQATVQTDKVDGKHFALAPKVLYEASWQKITIPANSSKQVTVPIDASRFSKDLLAQMKNGYFLEGFVRFKQDPTKEELMSIPYIGFRGDFGNLSAVEKPIYDSKDGSSYYHEANSDAKDQLDGDGLQFYALKNNFTALTTESNPWTIIKAVKEGVENIEDIESSEITETIFAGTFAKQDDDSHYYIHRHANGEPYAAISPNGDGNRDYVQFQGTFLRNAKNLVAEVLDKEGNVVWTSEVTEQVVKNYNNDLASTLGSTRFEKTRWDGKDKDGKVVANGTYTYRVRYTPISSGAKEQHTDFDVIVDNTTPEVATSATFSTEDRRLTLASKPKTSQPVYRERIAYTYMDEDLPTTEYISPNEDGTFTLPEEAETMEGATVPLKMSDFTYVVEDMAGNITYTPVTKLLEGHS
- C5a-ase activity (SDS-PAGE of C5a treated with ScpA; 42 nM ScpA with 37 µM HT-C5a, 30 min at 20° C.): the ScpA cleaved C5a at a single site
- mass loss of cleaved HT-C5a by MALDI-TOF MS: a loss of 830 Da, consistent with the removal of seven residues from the C terminal
